Drawing on paper PMC6432756, this text covers stoichiometry N for one substance.

In experiment [1] the target is D-allulose 3-epimerase from Staphylococcus aureus (Staphylococcus aureus). In words: MALDI-TOF mass spectrometry; purified enzyme on HCCA matrix, acetonitrile-water 70:30 with 0.01% trifluoroacetic acid, linear mode.
The target is the same in experiment [2]. Put plainly: SEC; purified SaDAE on Superdex 200 Increase 10/300 GL, 20 mM Tris-HCl pH 8.0, 100 mM NaCl, 1 mM DTT; markers conalbumin (75.0 kDa) and aldolase (158.0 kDa).

For orientation: stoichiometry N means a count of units in the complex or per binding partner. Regarding “D-allulose 3-epimerase from Staphylococcus aureus (enzyme)”, the stoichiometry N in experiment [1] and in experiment [2] was 4 each time.
